Measurements taken from US20210079074A1.

Assays:
[1] = target: FcγRIIIa receptor (V158 variant) (UniProt P08637); assay: cell-based or functional assay
[2] = target: FcγRIIa receptor (H131 variant) (UniProt P12318); assay: cell-based or functional assay
Sequence of FcγRIIa receptor (H131 variant) (P12318 34-317 limits assumed, change not shown): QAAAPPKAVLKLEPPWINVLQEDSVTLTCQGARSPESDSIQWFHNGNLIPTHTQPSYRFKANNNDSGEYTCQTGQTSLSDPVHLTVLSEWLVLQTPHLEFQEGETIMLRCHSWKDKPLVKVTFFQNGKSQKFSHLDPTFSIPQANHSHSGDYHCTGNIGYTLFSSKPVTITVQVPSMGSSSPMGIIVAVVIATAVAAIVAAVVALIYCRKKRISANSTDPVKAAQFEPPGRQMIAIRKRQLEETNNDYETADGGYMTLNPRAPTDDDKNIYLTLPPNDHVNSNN

Sequence of FcγRIIIa receptor (V158 variant) (P08637 other isoform, or with tags, fused parts or gaps mutant limits assumed): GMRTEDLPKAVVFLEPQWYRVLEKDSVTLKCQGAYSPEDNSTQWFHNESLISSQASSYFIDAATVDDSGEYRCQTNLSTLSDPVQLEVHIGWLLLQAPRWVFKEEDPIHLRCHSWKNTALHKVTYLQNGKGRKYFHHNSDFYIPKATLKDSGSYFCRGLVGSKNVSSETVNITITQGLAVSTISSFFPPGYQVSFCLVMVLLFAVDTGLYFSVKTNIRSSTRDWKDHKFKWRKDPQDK

isotype control antibody gave a luminescence, ADCC reporter, 3.048316 ng/mL [1] of 314, a luminescence, ADCC reporter, 9.144947 ng/mL [1] of 329 and a luminescence, ADCC reporter, 27.43484 ng/mL [1] of 340. For the same substance, the luminescence, ADCC reporter, 82.30453 ng/mL [1] was 377, the luminescence, ADCC reporter, 246.9136 ng/mL [1] was 381 and the luminescence, ADCC reporter, 740.7407 ng/mL [1] was 379. For the same substance, the luminescence, ADCC reporter, 2,222.222 ng/mL [1] was 373, the luminescence, ADCC reporter, 6,666.667 ng/mL [1] was 431 and the luminescence, ADCC reporter, 20,000 ng/mL [1] was 399. It also gave a luminescence, ADCP reporter, 3.048316 ng/mL [2] of 45, a luminescence, ADCP reporter, 9.144947 ng/mL [2] of 52 and a luminescence, ADCP reporter, 27.43484 ng/mL [2] of 42. It also gave a luminescence, ADCP reporter, 82.30453 ng/mL [2] of 41, a luminescence, ADCP reporter, 246.9136 ng/mL [2] of 54 and a luminescence, ADCP reporter, 740.7407 ng/mL [2] of 60. For the same substance, the luminescence, ADCP reporter, 2,222.222 ng/mL [2] was 57, the luminescence, ADCP reporter, 6,666.667 ng/mL [2] was 49 and the luminescence, ADCP reporter, 20,000 ng/mL [2] was 83.
